Data published in paper PMC2747011, “Soybean GmPHD-Type Transcription Regulators Improve Stress Tolerance in Transgenic Arabidopsis Plants”.

Columns and labels:
Settings in all cases: protein: recombinant; tags: GST (N-term, pGEX-4T-1); strand 1 has 5' overhang AATT (4 nt) and 3' overhang AGCT (4 nt); strand 2 fully paired
GmPHD4 NV = target: T1, GmPHD4 NV (Glycine max, UniProt I1M961 1-199); assay: EMSA; Binding buffer not given (EMSA as in ref. 59); probe annealed in 50 mM NaCl; competitor in ten-fold excess
T1 sequence: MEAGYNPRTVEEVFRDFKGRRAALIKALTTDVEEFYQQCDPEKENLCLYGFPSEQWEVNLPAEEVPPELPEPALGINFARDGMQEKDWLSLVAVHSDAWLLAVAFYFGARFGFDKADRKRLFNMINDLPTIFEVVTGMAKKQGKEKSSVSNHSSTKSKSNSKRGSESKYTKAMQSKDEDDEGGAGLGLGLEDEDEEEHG

GST-GmPHD6 = target: T2, GST-GmPHD6 (Glycine max, UniProt I1L1N8 1-248); assay: EMSA; reduced by 10x unlabeled probe; Binding buffer not given (EMSA as in ref. 59); probe annealed in 50 mM NaCl; competitor in ten-fold excess
T2 sequence: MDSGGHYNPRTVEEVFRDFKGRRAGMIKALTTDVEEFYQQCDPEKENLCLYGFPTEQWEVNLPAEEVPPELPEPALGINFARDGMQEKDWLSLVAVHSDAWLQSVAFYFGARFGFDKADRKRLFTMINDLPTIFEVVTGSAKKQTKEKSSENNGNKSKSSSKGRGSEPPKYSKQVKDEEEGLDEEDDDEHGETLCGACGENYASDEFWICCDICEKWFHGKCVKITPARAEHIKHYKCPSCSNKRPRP

GST-GmPHD5 = target: T3, GST-GmPHD5 (Glycine max, UniProt Q06A75 1-252); assay: as above
T3 sequence: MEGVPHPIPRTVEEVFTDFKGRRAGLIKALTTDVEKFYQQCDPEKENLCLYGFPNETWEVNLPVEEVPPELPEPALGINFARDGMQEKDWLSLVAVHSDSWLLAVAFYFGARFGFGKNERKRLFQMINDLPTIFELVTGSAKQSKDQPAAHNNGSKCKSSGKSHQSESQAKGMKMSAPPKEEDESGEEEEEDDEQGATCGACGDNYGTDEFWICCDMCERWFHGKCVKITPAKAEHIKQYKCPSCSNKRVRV

GmPHD4 N domain = target: T4, GmPHD4 N domain (Glycine max, UniProt I1M961 1-114); assay: EMSA; strong; Binding buffer not given (EMSA as in ref. 59); probe annealed in 50 mM NaCl; competitor in ten-fold excess
T4 sequence: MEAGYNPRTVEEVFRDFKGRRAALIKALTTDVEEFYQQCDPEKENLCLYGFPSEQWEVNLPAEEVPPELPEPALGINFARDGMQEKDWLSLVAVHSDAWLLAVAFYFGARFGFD

B1: 5x GTGGAG probe (dsDNA)
DNA 1: AATTCGGATCCGTGGAGGTGGAGGTGGAGGTGGAGGTGGAGGGTACCGAGCT
DNA 2: CGGTACCCTCCACCTCCACCTCCACCTCCACCTCCACGGATCCG
binding result (GmPHD4 NV): no binding | binding result (GST-GmPHD6): binds | binding result (GST-GmPHD5): binds | binding result (GmPHD4 N domain): binds
